Measured values taken from PMC4191427, “Molecular mechanisms of two-component system RhpRS regulating type III secretion system in Pseudomonas syringae” (Nucleic Acids Research, 2014).
Where a chain is given by its changes, count along the chain named.

Key:
RhpR = target: T1, RhpR (Pseudomonas syringae, UniProt A0ABY1U8E6); test: […] phosphorylation, autoradiography; assay type: biochemical; settings: phosphodonor; covalent phosphorylation (putative site Asp70); labelled compound; 37 °C, 30 min
T1 construct: gene virG; full-length, N-terminal His6 tag (pMCSG19, MBP cut off in vivo), E. coli BL21 star (DE3)

[1] = system: T2, RhpRpsph (Pseudomonas syringae pv. phaseolicola), ORF:976030cf; test: EMSA; settings: 10 mM Tris-HCl pH 7.4, 50 mM KCl, 5 mM MgCl2, 10% glycerol, 3 ug/ml sheared salmon sperm DNA, room temperature
T2 sequence: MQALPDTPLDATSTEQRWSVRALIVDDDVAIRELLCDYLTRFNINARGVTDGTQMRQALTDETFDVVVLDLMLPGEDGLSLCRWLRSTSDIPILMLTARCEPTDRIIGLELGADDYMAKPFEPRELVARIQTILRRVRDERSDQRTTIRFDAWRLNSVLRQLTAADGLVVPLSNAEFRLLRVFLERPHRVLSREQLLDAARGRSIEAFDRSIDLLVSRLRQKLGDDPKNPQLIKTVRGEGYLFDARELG

[2] = system: T3, RhpR (Pseudomonas syringae pv. tomato DC3000?), ORF:d96f1ca2; test: EMSA; settings: 10 mM Tris-HCl pH 7.4, 50 mM KCl, 5 mM MgCl2, 10% glycerol, 3 ug/ml sheared salmon sperm DNA, room temperature
T3 sequence: T2 sequence with D6E, T7N, P8T, E15D, T53S

[3] = system: RhpR (Pseudomonas syringae pv. tomato DC3000?); test: EMSA; settings: 10 mM Tris-HCl pH 7.4, 50 mM KCl, 5 mM MgCl2, 10% glycerol, 3 ug/ml sheared salmon sperm DNA, room temperature

| Compound | binding [1] | further results |
| --- | --- | --- |
| CC(=O)OP(=O)(O)O [acetyl phosphate] |  | 32P phosphorylation, autoradiography (RhpR): The phosphorylated RhpR was readily detected |
| ATATTACCGCGCAAACCATCGACCAGGATTTTGCCCGCAACGGCAAGATTCACCGCGCCTGGAAAATCATGGCGCGTGCCTGATACGGTGTGTGATGAGCTTGCCTGTAACAGTTTTGTACAGGTTTGCTCATCGCTCCCTATGAAAATTACTGGCGAATAGCTATAACAGAAGTCATAGCCAGCTTGACGCTTCAGCATGTTGGCGTCATGAGTTTCTG (double strand) [rlmL] | binds |  |
| CGCCTGGCGAATGTCTTATGGCAGCTTATTCGCAGCAGCAACTCATAGGCATCGGGGGGCTATCGGTCGATCCGTATATCAAAACTGATACCGCAAGGCTAAGGCGTGTGTACGTAACACCTACTGTAAGGAGGCAACATGTAGGTCAGGCGCTGGTAAAAGCATTGATTGCGCAGGCCGCGCTTCGTTTTCAGTGCGTGCGTCTTTCCACTGACACCTCTGAAGGCGATGCGTTTTACCTGCGTTGCGG (double strand) [PSPPH4977] | binds |  |
| GCAGGAACCCCTCTCGTTATCGGGTTGTCGACAACAGACTGGCTGTTAAAACCTGTTCAGAGTGTGAACAGAGCCTGGACACCTGAATTTTCATTACGAGAGGTTGCC (double strand) [PSPTO_1489 promoter] |  | binding [2]: no binding |
| GGGAACAGTTTGCGTTTTTCAGCCAGCCTCACTCATTAGCTGGATAAGCAGACAGGCGTTCTTTCACTTGATTCCGGTACAAGTTCTCATAACGATTGAAAGCCTGCTGCATCGATTCATCTATCCATGTATAAATGCTGTTACACATTGGCCCATCTCTGGAGACTCAGCGCATGCGTTACGCGCTCGATCATAAGGCCCAAACCCATCAACGTATCGTCAAGGAAGCGTCCATGCGCTTTCGTCGCGATGGCATTGGTGCTACGGGCTTACAACCTT (double strand) [PSPPH3654] | binds |  |
| TACAAGGGGTAGGGCTGTGACTGTCAGAAAGGTCCTATGCCCCGACACCTGCACGGTATAGAACACGCCAAACATCACGGCCATACGCCACCATCCGCTCTCCCGAATGTTCAGCAAAAGTACAGATACATCCTGCTACAACAATCCTTGCGCAGAAACATTTGAGCGACTGGGCACTGCGTTCAGCGCCACTGCACCTGCGGATGATTCCGAGGAGGCAACATGTTCTTAAGGTATGGGGTATTGATCGCATCACTTGCGATAGCGTCA (double strand) [PSPPH1086] | binds |  |
| TTCGATACTTAGCGGATCAGGCATTATCGCATCGCCGCAAAAAATAATCCTGCCGCCGGGAGGAGAGCACACGGTTAGATTGCGCTCGTTGTCGAGTCCAAATAAAGAGTTGTTATATCGTGTATATGTCGAGACTGTAGCTGCGAATACGGATGAAGATCATGTGGTTACAGAGGGGGGTGGCAGCGTTGGTATTAGTCTAACATGGGGG (double strand) [PSPPH0775] | no binding |  |
| rhpR promoter EMSA probe |  | binding signal (fold affinity vs unphosphorylated RhpR) [3]: 8; binding signal ([3]; scale: fold affinity vs unphosphorylated RhpR): 8 |
